The values that follow come from US20220259593A1, “CONTROL OF MAMMALIAN GENE DOSAGE USING CRISPR” (The Regents of the University of California, priority 2019, published 2022).

In this series the test system is K562 CRISPRi cells. The experiment in a line: Constant region variant library pooled growth screen, K562. It counts as cell-based, human. The conditions noted are these: sgRNA constant region variants; activity relative to the original, un-modified constant region cr995. An outline of the steps: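 Library of sgRNA constant-region variants, each paired with 36 targeting sequences (essential-gene and non-targeting), transduced in duplicate into K562 CRISPRi cells, puromycin-selected and grown 4–8 days at >2000× coverage. Activity per variant is its growth phenotype normalised to the same targeting sequence with unmodified constant region.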

B1: cr350 (nucleic acid)
guide: GTTTAAGAGCTAAGCTGGAAACAGCATAGCAAGCTTAAATAATGCTAGTCAGTTATCAACTTGAAAAAGTGGCACCGAGTCGGTGCT
modifications: listed as DNA, chemistry not fully specified
B1: the Mean relative activity is on record as 0.001423.

B2: cr099 (nucleic acid)
guide: GTTTAAGAGCTAAGCTGGAAACAGCATAGCAATTTTAAATAAGGCTAGGCCGTTATCAACTTGAAAAAGTGGCACCGAGTCGGTGCT
modifications: listed as DNA, chemistry not fully specified
Molecule B2 displayed a Mean relative activity of 0.0005052.

B3: cr939 (nucleic acid)
guide: GTTTAAGAGCTAAGCTGGAAACAGCATAGCAACTTTAAATAAGGCAAGTCCCTTATCAACTTGAAAAAGTGGCACCGAGTCGGTGCT
modifications: listed as DNA, chemistry not fully specified
B3 yielded a Mean relative activity of 4.94E−05.

B4: cr431 (nucleic acid)
guide: GTTTAAGAGCTAAGCTGGAAACAGCATAGCAAGGTTAAATAAGGCTAGTCCGTTATCAACTTGAGAAAGTGGCACCGCGTCGGTGCT
modifications: listed as DNA, chemistry not fully specified
Molecule B4 displayed a Mean relative activity of −0.0002713.

B5: cr083 (nucleic acid)
guide: GTGTGAGAGCTAAGCTGGAAACAGCATAGCAAGTTTAAATAAGGCTAGTCCGTTATCAACTTGAAAAAGTGGCACCGAGTCGGTGCT
modifications: listed as DNA, chemistry not fully specified
Take B5: the Mean relative activity is given as 0.001403.

B6: cr787 (nucleic acid)
guide: GTTTAAGAGCTAAGCTGGAAACAGCATAGCAACTTTAAATAACGCTAGTCGGTTATCAACTTGAAAAAGTGGCACCGAGTCGGTGCT
modifications: listed as DNA, chemistry not fully specified
Molecule B6 returned a Mean relative activity of 0.0008483.

B7: cr912 (nucleic acid)
guide: GTTTAAGAGCTAAGCTGGAAACAGCATAGCAAGCTTAAATGAGGCTAGTCCGGTATCAACTTGAAAAAGTGGCACCGAGTCGGTGCT
modifications: listed as DNA, chemistry not fully specified
Turning to B7, the Mean relative activity was −1.05E−05.

B8: cr497 (nucleic acid)
guide: GTTTAAGAGCTAAGCTGGAAACAGCATAGCAAGTTTAAATAAGGCTAGTCCGTTATCAACTTGAGAAAGTGGAACCGAGTCGGTTCT
modifications: listed as DNA, chemistry not fully specified
B8 returned a Mean relative activity of 1.028.

B9: cr579 (nucleic acid)
guide: GTTTAAGAGCTAAGCTGGAAACAGCATAGCAAGTTTAAATAAGGCTAGTCCCATATCAACTTGAAAAAGTGGCACCGAGTCGGTGCT
modifications: listed as DNA, chemistry not fully specified
For the molecule B9, the Mean relative activity is −0.000418.

B10: cr629 (nucleic acid)
guide: GTTTAAGAGCTAAGCTGGAAACAGCATAGCAACTTTAAATAAGGCTAGTCCGTTATCAAATTGAAAAATTGGCACCGAGTCGGTGCT
modifications: listed as DNA, chemistry not fully specified
Turning to B10, the Mean relative activity is given as −5.97E−5.

B11: cr035 (nucleic acid)
guide: GTTGATGAGCTAAGCTGGAAACAGCATAGCAAGTTTAAATAAGGCTAGTCCGTTATCAACTTGAAAAAGTGGCACCGAGTCGGTGCT
modifications: listed as DNA, chemistry not fully specified
With B11, the Mean relative activity was found to be 0.0006927.

B12: cr106 (nucleic acid)
guide: GTTTAAGAGCTAAGCTGGAAACAGCATAGCAAGGTTAAATAAGTCTAGTACGTTATCAACTTGAAAAAGTGGCACCGAGTCGGTGCT
modifications: listed as DNA, chemistry not fully specified
In turn, B12 registered a Mean relative activity of 0.001355.
